B1: Pistol ribozyme (parent)
chain: GGGUCGUUGUUCCAUAAUCGCGUGGAUAUGGCACGCAAGUUUCUACCGGGCACCGUAAAUGUCCGACUGGAGCCGUUCGGGCGGCUAUAAACAGACCUCAGGCCCGAAGCGUGGCGGCACCUGCCGCCGGUGGUAAAAAAGAUCGGAAGAGCACACGUCU

In the series the parent is B1. Briefly: aptazyme ON/OFF ratio, guanine; higher = stronger switching; co-transcriptional cleavage with and without guanine.
Turning to U7A U8A G9A U10C U11A C12A, the “aptazyme ON/OFF ratio” value is 1.08.

In the case of U7A U8A G9A U11C C12A, the “aptazyme ON/OFF ratio” value is 1.16.

Consider U7A U8A G9A U11C C12G, for which the “aptazyme ON/OFF ratio” value is 1.1.

Take U7A U8A G9A U10C U11A C13A: the “aptazyme ON/OFF ratio” value was found to be 1.11.

As for U7A U8A G9A U10C U11A C13G, the “aptazyme ON/OFF ratio” value was determined as 1.09.

Turning to U7A U8A G9A U10C U11A C13U, the “aptazyme ON/OFF ratio” value worked out at 1.09.

In the case of U7A G9U U10G U11C C13U, the “aptazyme ON/OFF ratio” value came to 1.05.

With U7A G9U U10G U11C C13G, the “aptazyme ON/OFF ratio” value amounted to 1.08.

As to U7A G9U U10G U11C C13A, the “aptazyme ON/OFF ratio” value was 1.1.

In the case of U7A U8A G9A U11A C12A C13U, the “aptazyme ON/OFF ratio” value is 1.07.

As for U7A U8A G9A U11A C12A C13G, the “aptazyme ON/OFF ratio” value was 1.21.

Regarding U7A U8A G9A U11A C12A C13A, the “aptazyme ON/OFF ratio” value came out at 1.17.

Turning to U7A G9U U11G C13G, the “aptazyme ON/OFF ratio” value amounted to 1.04.

In the case of U7A G9U U11G C13A, the “aptazyme ON/OFF ratio” value is 1.15.

Take U7A G9U U11G C13U: the “aptazyme ON/OFF ratio” value amounted to 1.31.

With U7A U8A C12G C13U, the “aptazyme ON/OFF ratio” value came to 1.48.

For the variant U7A U8A C12G C13A, the “aptazyme ON/OFF ratio” value came out at 1.2.

With U7A U8A C12G C13G, the “aptazyme ON/OFF ratio” value was determined as 1.35.

As for U7A G9U U10G U11C C12U, the “aptazyme ON/OFF ratio” value is 1.06.

Take U7A G9U U10G U11C C12A: the “aptazyme ON/OFF ratio” value worked out at 1.21.

U7A G9U U10G U11C C12G: the “aptazyme ON/OFF ratio” value came out at 1.21.

For U7A U8A G9A, the “aptazyme ON/OFF ratio” value is 1.87.

As to U7A U8A G9A U10G C12A C13U, the “aptazyme ON/OFF ratio” value is 1.2.

Regarding U7A U8A G9A U10G C12A C13G, the “aptazyme ON/OFF ratio” value is 1.12.

Consider U7A U8A G9A U10G C12A C13A, for which the “aptazyme ON/OFF ratio” value is 1.21.

With U7A G9U U10G U11A C12U C13G, the “aptazyme ON/OFF ratio” value is 1.16.

Take U7A G9U U10G U11A C12U C13U: the “aptazyme ON/OFF ratio” value stood at 1.26.

Consider U7A U8A G9A U10A U11C C12G C13A, for which the “aptazyme ON/OFF ratio” value was determined as 1.11.

U7A U8A G9A U10A U11C C12G C13U: the “aptazyme ON/OFF ratio” value amounted to 1.1.

In the case of U7A U8A G9A U10A U11C C12G C13G, the “aptazyme ON/OFF ratio” value turned out to be 1.3.

For the variant U7A U8A G9A U10G C12G, the “aptazyme ON/OFF ratio” value stood at 1.32.

On to U7A U8A G9A U10G C12A, for which the “aptazyme ON/OFF ratio” value came out at 1.18.

On to U7A U8A G9A U10G C12U, for which the “aptazyme ON/OFF ratio” value is 1.14.

As to U7A G9U U11C C12A, the “aptazyme ON/OFF ratio” value is 1.34.

U7A G9U U11C C12G: the “aptazyme ON/OFF ratio” value was 1.18.

For the variant U7A G9U U11C C12U, the “aptazyme ON/OFF ratio” value is 1.16.

In the case of U7A U8A G9A U10C C12G C13U, the “aptazyme ON/OFF ratio” value came to 1.08.

On to U7A U8A G9A U10C C12G C13A, for which the “aptazyme ON/OFF ratio” value is 1.11.

Consider U7A U8A G9A U10C C12G C13G, for which the “aptazyme ON/OFF ratio” value worked out at 1.03.

For U7A U8A G9A U10A U11G C13A, the “aptazyme ON/OFF ratio” value was 1.17.

Take U7A U8A G9A U10A U11G C13G: the “aptazyme ON/OFF ratio” value was found to be 1.18.

As for U7A U8A G9A U10A U11G C13U, the “aptazyme ON/OFF ratio” value was determined as 1.16.

Consider U7A G9U U11C C13G, for which the “aptazyme ON/OFF ratio” value stood at 1.08.

With U7A G9U U11C C13U, the “aptazyme ON/OFF ratio” value came to 1.12.

With U7A G9U U11C C13A, the “aptazyme ON/OFF ratio” value stood at 1.15.

Regarding U7A G9U U11A C12G C13G, the “aptazyme ON/OFF ratio” value stood at 1.12.

Regarding U7A G9U U11A C12G C13A, the “aptazyme ON/OFF ratio” value was 1.08.

Take U7A G9U U11A C12G C13U: the “aptazyme ON/OFF ratio” value was determined as 1.25.

With U7A U8A G9A U10G U11A C12A C13U, the “aptazyme ON/OFF ratio” value stood at 1.2.

As for U7A U8A G9A U10G U11A C12A C13G, the “aptazyme ON/OFF ratio” value was found to be 1.18.

U7A U8A G9A U10G U11A C12A C13A: the “aptazyme ON/OFF ratio” value amounted to 1.02.

Take U7A U8A: the “aptazyme ON/OFF ratio” value was determined as 2.94.

U7A U8A G9A U10G U11G: the “aptazyme ON/OFF ratio” value came out at 1.07.

U7A U8A G9A U10G U11A: the “aptazyme ON/OFF ratio” value stood at 1.02.

Regarding U7A U8A G9A U10G U11C, the “aptazyme ON/OFF ratio” value worked out at 1.04.

On to U7A G9U U11A C12A C13G, for which the “aptazyme ON/OFF ratio” value was 1.16.

U7A G9U U11A C12A C13A: the “aptazyme ON/OFF ratio” value is 1.39.

Consider U7A G9U U11A C12A C13U, for which the “aptazyme ON/OFF ratio” value is 1.19.

For U7A U8A G9A U10G U11C C12U C13A, the “aptazyme ON/OFF ratio” value amounted to 1.07.

Regarding U7A U8A G9A U10G U11C C12U C13U, the “aptazyme ON/OFF ratio” value was determined as 1.23.

For the variant U7A U8A G9A U10G U11C C12U C13G, the “aptazyme ON/OFF ratio” value is 1.19.

As for U7A U8A G9A U10G C13G, the “aptazyme ON/OFF ratio” value is 1.46.

Take U7A U8A G9A U10G C13A: the “aptazyme ON/OFF ratio” value was 1.6.

With U7A U8A G9A U10G C13U, the “aptazyme ON/OFF ratio” value worked out at 1.34.

As for U7A U8A G9A U10C U11C C12U, the “aptazyme ON/OFF ratio” value is 1.04.

For U7A U8A G9A U10C U11C C12G, the “aptazyme ON/OFF ratio” value was 1.05.

Turning to U7A U8A G9A U10C U11C C12A, the “aptazyme ON/OFF ratio” value worked out at 1.18.

On to U7A G9U U10G U11C C12G C13A, for which the “aptazyme ON/OFF ratio” value came out at 1.15.

Regarding U7A G9U U10G U11C C12G C13U, the “aptazyme ON/OFF ratio” value is 1.31.

As to U7A G9U U10G U11C C12G C13G, the “aptazyme ON/OFF ratio” value worked out at 1.17.

U7A U8A G9A U10C C12U: the “aptazyme ON/OFF ratio” value came out at 1.23.

Take U7A U8A G9A U10C C12A: the “aptazyme ON/OFF ratio” value came out at 1.1.

As for U7A U8A G9A U10C C12G, the “aptazyme ON/OFF ratio” value turned out to be 1.05.

Turning to U7A U8A G9A U10A U11A C12A C13A, the “aptazyme ON/OFF ratio” value turned out to be 1.35.

For U7A U8A G9A U10A U11A C12A C13U, the “aptazyme ON/OFF ratio” value was found to be 1.34.

For the variant U7A U8A G9A U10A U11A C12A C13G, the “aptazyme ON/OFF ratio” value came out at 1.21.

As for U7A G9U U11A C12G, the “aptazyme ON/OFF ratio” value was determined as 1.35.

With U7A G9U U11A C12U, the “aptazyme ON/OFF ratio” value came to 1.34.

Regarding U7A G9U U11A C12A, the “aptazyme ON/OFF ratio” value was 1.28.

Take U7A U8A G9A C12A C13A: the “aptazyme ON/OFF ratio” value turned out to be 1.06.

As to U7A U8A G9A C12A C13G, the “aptazyme ON/OFF ratio” value was found to be 1.06.

As for U7A U8A G9A C12A C13U, the “aptazyme ON/OFF ratio” value was 1.07.

Consider U7A U8A G9A U10C U11G C12U, for which the “aptazyme ON/OFF ratio” value was determined as 1.11.

For the origin of these results see the RNAGym collection of RNA variant scans (doi:10.1021/acssynbio.7b00057).
